The data set has as its target SRSF1-RBD (UniProt Q07955 1-203). Kind of data set: EMSA.

Chain of SRSF1-RBD (Q07955 1-203): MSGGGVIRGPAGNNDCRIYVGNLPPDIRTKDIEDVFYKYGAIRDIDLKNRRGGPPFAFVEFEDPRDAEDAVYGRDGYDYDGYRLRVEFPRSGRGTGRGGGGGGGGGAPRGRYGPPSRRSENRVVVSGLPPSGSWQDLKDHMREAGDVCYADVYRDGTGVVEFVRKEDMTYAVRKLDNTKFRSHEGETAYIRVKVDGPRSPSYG

B1: AdML pre-mRNA (structured_RNA)
RNA: GAGCUCGGUACCCCGUUCGUCCUCACUCUCUUCCGCAUCGCUGUCUGCGAGGGCCAGCUGUUGGGGUGAGUACUCCCUCUCAAAAGCGGGCAUGACUUCUGCCCUCGAGUUAUUAACCCUCACUAAAGGCAGUAGUCAAGGGUUUCCUUGAAGCUUUCGUGCUGACCCUGUCCCUUUUUUUUCCACAGCUGCAGGUCGACGUUGAGGACAAACUCUUCGCGGUCUUUCCAGUACUCUU
Consider B1, for which the binding result was “binds”.

(Values after publication PMC9371905.)
